Experimental findings from patent publication US20200276294, “Methods and Compositions for Activation of Innate Immune Responses Through RIG-I Like Receptor Signaling” (University of Washington through its Center for …, published 2020) are described below.

For series [1], the target named is T1, RIG-I (full-length) (UniProt O95786 O95786:1-925).
T1 sequence: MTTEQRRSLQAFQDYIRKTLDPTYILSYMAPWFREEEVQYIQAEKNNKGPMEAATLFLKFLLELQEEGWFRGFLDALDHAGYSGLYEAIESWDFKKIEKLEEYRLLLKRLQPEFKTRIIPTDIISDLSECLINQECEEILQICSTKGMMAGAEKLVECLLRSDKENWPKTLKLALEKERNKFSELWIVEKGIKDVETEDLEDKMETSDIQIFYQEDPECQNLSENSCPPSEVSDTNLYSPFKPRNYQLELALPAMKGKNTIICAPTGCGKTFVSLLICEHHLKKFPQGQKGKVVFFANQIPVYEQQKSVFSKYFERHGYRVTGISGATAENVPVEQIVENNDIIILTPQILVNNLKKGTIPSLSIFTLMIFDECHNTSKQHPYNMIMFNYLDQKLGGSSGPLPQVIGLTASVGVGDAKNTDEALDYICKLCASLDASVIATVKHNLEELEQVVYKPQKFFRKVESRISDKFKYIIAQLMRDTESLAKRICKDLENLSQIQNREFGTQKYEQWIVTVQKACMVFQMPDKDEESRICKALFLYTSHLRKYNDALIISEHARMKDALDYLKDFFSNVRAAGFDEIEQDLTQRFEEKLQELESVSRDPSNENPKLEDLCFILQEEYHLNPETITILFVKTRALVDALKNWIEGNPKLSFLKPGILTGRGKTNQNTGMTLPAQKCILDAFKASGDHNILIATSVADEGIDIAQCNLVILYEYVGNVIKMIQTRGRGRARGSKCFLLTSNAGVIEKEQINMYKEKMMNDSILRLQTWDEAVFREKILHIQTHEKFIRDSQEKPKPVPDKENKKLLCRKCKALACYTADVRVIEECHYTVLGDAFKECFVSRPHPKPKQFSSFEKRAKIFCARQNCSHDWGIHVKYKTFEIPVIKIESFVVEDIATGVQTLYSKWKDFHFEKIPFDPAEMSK
The experiment in a line: footprint; limited trypsin proteolysis, RD and helicase+CARDs protected; AMP-PNP.

The target of series [2] is T1, RIG-I (full-length). In words: footprint; limited trypsin proteolysis, RD and helicase+CARDs protected; EMSA not possible. How it is done:
RIG-I is maintained in an auto-repressed conformation in uninfected cells where the CARDs interact with either the C-terminal repressor domain (RD), the helicase insertion domain (Hel2i), or both domains. […] To further assess RNA interactions with RIG-I, and to determine how HCV PAMP RNA interacts with the helicase domain and RD of RIG-I, limited-trypsin proteolysis of RIG-I/RNA complexes were conducted for nine RNA constructs selected to represent a range of PAMP activity (FIG. 3). RIG-I is highly sensitive to trypsin proteolysis in the absence of PAMP RNA; however, upon binding to an RNA ligand RIG-I undergoes conformational changes that protect the RD and other RNA-bound domains from trypsin digestion.
Various amounts of RNA (0-10 pmol) were mixed with 30 pmol purified RIG-I protein, 2 μl of 5× reaction buffer (20 mM Tris-HCl, pH 8.0; 1.5 mM MgCl₂; 1.5 mM DTT; 70 mM KCl), 0.67 μl AMP-PNP (10 mg/ml), and nuclease-free water up to 10 μl total volume. Reactions were incubated for 5 minutes at room temperature. […] SDS-PAGE Laemmli sample buffer (Bio-Rad) was then added to the samples and reaction products were analyzed by SDS-PAGE followed by silver stain using the SilverQuest silver staining kit (Invitrogen) as per the manufacturer's instructions.
In general terms: In EMSA bound probe runs differently from free probe, usually more slowly.

Series [3] deals with T1, RIG-I (full-length). In words: EMSA; EC10 1.42 pmol RIG-I; >50% of RNA bound at 8 pmol; 10 pmol RNA, 20 mM Tris pH 8.0, 1.5 mM MgCl2, 37 C. The conditions noted are these: stem-loops.
For series [4], the target named is T1, RIG-I (full-length). The experiment in a line: EMSA; no binding at 0-10 pmol RIG-I; limited RD protection in trypsin assay. The following applies: stem-loops.
The target in series [5] is T1, RIG-I (full-length). The experiment in a line: EMSA; EC50 over all constructs 2.28-7.31 pmol, individual value in figure only; high signaling.

Some results are limits rather than exact numbers.

B1: JFH1 pU/UC (ssRNA)
RNA: ACUGUUCCUUUUUUUUUUUUUUUUUUUUUUUUUUUUUUUUUUUUUUUUUUUCUUUUUUUUUUUUUUCCCUCUUUCUUCCCUUCUCAUCUUAUUCUACUUUCUUUCUU
modifications: 5'-triphosphate; three G at 5' end
Consider B1, for which the binding result in series [1] is reported as “binds”.

B2: poly-U 62-C (ssRNA)
RNA: UUUUUUUUUUUUUUUUUUUUUUUUUUUUUUUUUUUUUUUUUUUUCUUUUUUUUUUUUUUUUU
modifications: 5'-triphosphate; three G at 5' end
For the molecule B2, the binding result in series [1] is reported as “binds”.

B3: poly-U 62 (ssRNA)
RNA: UUUUUUUUUUUUUUUUUUUUUUUUUUUUUUUUUUUUUUUUUUUUUUUUUUUUUUUUUUUUUU
modifications: 5'-triphosphate; three G at 5' end
For B3, the binding result in series [2] is reported as “binds”.

B4: X-region-U34 (ssRNA)
RNA: GGGUGGCUCCAUCUUAGCCCUAGUCACGGCUAGCUGUGAAAGGUCCGUGAGCUUUUUUUUUUUUUUUUUUUUUUUUUUUUUUUUUUCGCUUGACUGCAGAGAGUGCUGAUACUGGCCUCUCUGCAGAUCAAGU
modifications: 5'-triphosphate
Molecule B4 gave an EC50 in series [3] of under 8 pmol.

B5: X-region (ssRNA)
RNA: GGUGGCUCCAUCUUAGCCCUAGUCACGGCUAGCUGUGAAAGGUCCGUGAGCCGCUUGACUGCAGAGAGUGCUGAUACUGGCCUCUCUGCAGAUCAAGU
modifications: 5'-triphosphate
As for B5, the binding result in series [4] is recorded as “no binding”.

B6: U17core (ssRNA)
RNA: GGCCAUCCUGUUUUUUUCCCUUUUUUUUUUUCUUUUUUUUUUUUUUUUUCUCCUUUUUUUUUCCUCUUUUUUUCCUUUUCUUUCCUUUCCCCCCCCCCCCCCCCC
modifications: 5'-triphosphate; three G at 5' end
Take B6: the binding result in series [1] was “binds”.

B7: Con1 pU/UC (ssRNA)
RNA: GGCCAUCCUGUUUUUUUCCCUUUUUUUUUUUCUUUUUUUUUUUUUUUUUUUUUUUUUUUUUUUUUUCUCCUUUUUUUUUCCUCUUUUUUUCCUUUUCUUUCCUUU
modifications: 5'-triphosphate; three G at 5' end
On to B7, for which the binding result in series [5] is reported as “binds”.
